System: Escherichia coli TOP10
Assay: shrunken log2 fold change of peptide-encoding DNA abundance (4.5 h post-induction vs induction); higher = less antimicrobial activity (less host growth inhibition)
Settings: time post-induction: 4.5 h; library: site-saturation at positions 5, 18, 19, 20
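Also: peptides expressed intracellularly from a pBAD plasmid library in pooled LB shake-flask culture, induced with 0.3% L-arabinose, DNA abundance read by NGS, three biological replicates, DESeq2 with apeglm shrinkage.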

Row | Sequence | shrunken log2 fold change
1 | RRIRCRPPRLPRPRPRPDFRPRP | 0.00204
2 | RRIRCRPPRLPRPRPRPDGFPRP | -0.333
3 | RRIRCRPPRLPRPRPRPDGGPRP | 0.196
4 | RRIRCRPPRLPRPRPRPDIAPRP | 0.38
5 | RRIRCRPPRLPRPRPRPDIIPRP | -0.132
6 | RRIRCRPPRLPRPRPRPDLMPRP | -0.424
7 | RRIRCRPPRLPRPRPRPDMAPRP | -0.145
8 | RRIRCRPPRLPRPRPRPDMHPRP | 0.0405
9 | RRIRCRPPRLPRPRPRPDMIPRP | -0.69
10 | RRIRCRPPRLPRPRPRPDMYPRP | -0.561
11 | RRIRCRPPRLPRPRPRPDNWPRP | 0.409
12 | RRIRCRPPRLPRPRPRPDVDPRP | 0.0251
13 | RRIRCRPPRLPRPRPRPDVHPRP | -0.241
14 | RRIRCRPPRLPRPRPRPDWGPRP | -0.134
15 | RRIRCRPPRLPRPRPRPDYKPRP | -0.375
16 | RRIRCRPPRLPRPRPRPECEPRP | 0.757
17 | RRIRCRPPRLPRPRPRPECNPRP | -0.0881
18 | RRIRCRPPRLPRPRPRPECTPRP | -0.0491
19 | RRIRCRPPRLPRPRPRPEEPPRP | 0.847
20 | RRIRCRPPRLPRPRPRPEFHPRP | -0.664
21 | RRIRCRPPRLPRPRPRPEFMPRP | 0.118
22 | RRIRCRPPRLPRPRPRPEGDPRP | 0.193
23 | RRIRCRPPRLPRPRPRPEGLPRP | 0.0021
24 | RRIRCRPPRLPRPRPRPEHKPRP | -0.221
25 | RRIRCRPPRLPRPRPRPEKCPRP | 0.209

Row | Sequence | shrunken log2 fold change
26 | RRIRCRPPRLPRPRPRPEKGPRP | 0.0373
27 | RRIRCRPPRLPRPRPRPEKWPRP | -0.0207
28 | RRIRCRPPRLPRPRPRPELTPRP | 0.0136
29 | RRIRCRPPRLPRPRPRPEMFPRP | 0.00455
30 | RRIRCRPPRLPRPRPRPEMKPRP | 0.0473
31 | RRIRCRPPRLPRPRPRPENCPRP | 0.0153
32 | RRIRCRPPRLPRPRPRPENVPRP | -0.0137
33 | RRIRCRPPRLPRPRPRPEPNPRP | 0.265
34 | RRIRCRPPRLPRPRPRPEQYPRP | -0.322
35 | RRIRCRPPRLPRPRPRPERPPRP | 0.777
36 | RRIRCRPPRLPRPRPRPESDPRP | 0.242
37 | RRIRCRPPRLPRPRPRPETYPRP | -0.34
38 | RRIRCRPPRLPRPRPRPEWGPRP | 0.163
39 | RRIRCRPPRLPRPRPRPEWVPRP | 0.293
40 | RRIRCRPPRLPRPRPRPFAEPRP | -0.0347
41 | RRIRCRPPRLPRPRPRPFAIPRP | -0.682
42 | RRIRCRPPRLPRPRPRPFARPRP | 0.0264
43 | RRIRCRPPRLPRPRPRPFCEPRP | 0.000102
44 | RRIRCRPPRLPRPRPRPFDDPRP | 0.0116
45 | RRIRCRPPRLPRPRPRPFDFPRP | -0.342
46 | RRIRCRPPRLPRPRPRPFEQPRP | -0.669
47 | RRIRCRPPRLPRPRPRPFFIPRP | -0.484
48 | RRIRCRPPRLPRPRPRPFFYPRP | -0.32
49 | RRIRCRPPRLPRPRPRPFHKPRP | -0.0775
50 | RRIRCRPPRLPRPRPRPFHSPRP | -0.458

Row | Sequence | shrunken log2 fold change
51 | RRIRCRPPRLPRPRPRPFKGPRP | 0.0401
52 | RRIRCRPPRLPRPRPRPFKWPRP | -0.115
53 | RRIRCRPPRLPRPRPRPFLCPRP | -0.786
54 | RRIRCRPPRLPRPRPRPFLLPRP | -0.569
55 | RRIRCRPPRLPRPRPRPFLMPRP | -0.422
56 | RRIRCRPPRLPRPRPRPFLTPRP | -0.565
57 | RRIRCRPPRLPRPRPRPFNGPRP | -0.148
58 | RRIRCRPPRLPRPRPRPFNNPRP | -0.701
59 | RRIRCRPPRLPRPRPRPFNVPRP | -0.146
60 | RRIRCRPPRLPRPRPRPFPMPRP | -0.274
61 | RRIRCRPPRLPRPRPRPFQDPRP | -0.169
62 | RRIRCRPPRLPRPRPRPFQSPRP | -0.0129
63 | RRIRCRPPRLPRPRPRPFRVPRP | -0.32
64 | RRIRCRPPRLPRPRPRPFTIPRP | -0.0284
65 | RRIRCRPPRLPRPRPRPFTTPRP | -0.286
66 | RRIRCRPPRLPRPRPRPFWVPRP | 0.0496
67 | RRIRCRPPRLPRPRPRPFYPPRP | -0.511
68 | RRIRCRPPRLPRPRPRPGCPPRP | 0.239
69 | RRIRCRPPRLPRPRPRPGDLPRP | -0.314
70 | RRIRCRPPRLPRPRPRPGHAPRP | 0.297
71 | RRIRCRPPRLPRPRPRPGHHPRP | -0.439
72 | RRIRCRPPRLPRPRPRPGHIPRP | -0.458
73 | RRIRCRPPRLPRPRPRPGIQPRP | -0.248
74 | RRIRCRPPRLPRPRPRPGIYPRP | -0.0438
75 | RRIRCRPPRLPRPRPRPGLCPRP | 0.291

Row | Sequence | shrunken log2 fold change
76 | RRIRCRPPRLPRPRPRPGLMPRP | -0.102
77 | RRIRCRPPRLPRPRPRPGLPPRP | 0.143
78 | RRIRCRPPRLPRPRPRPGMLPRP | -0.135
79 | RRIRCRPPRLPRPRPRPGMSPRP | 0.0961
80 | RRIRCRPPRLPRPRPRPGNLPRP | -0.167
81 | RRIRCRPPRLPRPRPRPGNPPRP | -0.132
82 | RRIRCRPPRLPRPRPRPGPLPRP | 0.213
83 | RRIRCRPPRLPRPRPRPGRKPRP | 0.0644
84 | RRIRCRPPRLPRPRPRPGRPPRP | 0.106
85 | RRIRCRPPRLPRPRPRPGYGPRP | -0.273
86 | RRIRCRPPRLPRPRPRPHCDPRP | -0.579
87 | RRIRCRPPRLPRPRPRPHCPPRP | -0.508
88 | RRIRCRPPRLPRPRPRPHDIPRP | -0.00735
89 | RRIRCRPPRLPRPRPRPHFCPRP | -0.649
90 | RRIRCRPPRLPRPRPRPHGRPRP | 0.0979
91 | RRIRCRPPRLPRPRPRPHHKPRP | -0.857
92 | RRIRCRPPRLPRPRPRPHIFPRP | -1.15
93 | RRIRCRPPRLPRPRPRPHILPRP | -0.476
94 | RRIRCRPPRLPRPRPRPHKCPRP | -0.721
95 | RRIRCRPPRLPRPRPRPHLKPRP | -0.322
96 | RRIRCRPPRLPRPRPRPHNQPRP | -0.565
97 | RRIRCRPPRLPRPRPRPHNTPRP | -0.246
98 | RRIRCRPPRLPRPRPRPHPCPRP | -0.579
99 | RRIRCRPPRLPRPRPRPHPKPRP | -0.102
100 | RRIRCRPPRLPRPRPRPHPLPRP | 0.989

Row | Sequence | shrunken log2 fold change
101 | RRIRCRPPRLPRPRPRPHQWPRP | 0.321
102 | RRIRCRPPRLPRPRPRPHRIPRP | -0.492
103 | RRIRCRPPRLPRPRPRPHSMPRP | -0.718
104 | RRIRCRPPRLPRPRPRPHSPPRP | -0.422
105 | RRIRCRPPRLPRPRPRPHSVPRP | -0.613
106 | RRIRCRPPRLPRPRPRPHYDPRP | -0.687
107 | RRIRCRPPRLPRPRPRPHYKPRP | -0.894
108 | RRIRCRPPRLPRPRPRPICWPRP | 0.202
109 | RRIRCRPPRLPRPRPRPIDKPRP | -0.161
110 | RRIRCRPPRLPRPRPRPIFKPRP | -0.323
111 | RRIRCRPPRLPRPRPRPIGYPRP | -0.00724
112 | RRIRCRPPRLPRPRPRPIHKPRP | -0.638
113 | RRIRCRPPRLPRPRPRPIKTPRP | -0.0653
114 | RRIRCRPPRLPRPRPRPIMLPRP | -0.587
115 | RRIRCRPPRLPRPRPRPINDPRP | -0.505
116 | RRIRCRPPRLPRPRPRPINGPRP | -0.282
117 | RRIRCRPPRLPRPRPRPINLPRP | -0.355
118 | RRIRCRPPRLPRPRPRPIPEPRP | 0.00841
119 | RRIRCRPPRLPRPRPRPIPLPRP | 0.148
120 | RRIRCRPPRLPRPRPRPIPQPRP | 0.153
121 | RRIRCRPPRLPRPRPRPIPVPRP | -0.376
122 | RRIRCRPPRLPRPRPRPIPWPRP | -0.146
123 | RRIRCRPPRLPRPRPRPIQTPRP | 0.299
124 | RRIRCRPPRLPRPRPRPIQYPRP | -0.308
125 | RRIRCRPPRLPRPRPRPISVPRP | 0.0666

Row | Sequence | shrunken log2 fold change
126 | RRIRCRPPRLPRPRPRPITAPRP | -3.59e-05
127 | RRIRCRPPRLPRPRPRPITCPRP | -0.159
128 | RRIRCRPPRLPRPRPRPIVSPRP | -0.506
129 | RRIRCRPPRLPRPRPRPIWQPRP | 0.102
130 | RRIRCRPPRLPRPRPRPIWRPRP | 0.285
131 | RRIRCRPPRLPRPRPRPIYHPRP | -0.905
132 | RRIRCRPPRLPRPRPRPKAAPRP | 0.115
133 | RRIRCRPPRLPRPRPRPKDNPRP | -0.273
134 | RRIRCRPPRLPRPRPRPKENPRP | 0.192
135 | RRIRCRPPRLPRPRPRPKFTPRP | -0.391
136 | RRIRCRPPRLPRPRPRPKGAPRP | 0.492
137 | RRIRCRPPRLPRPRPRPKGEPRP | 0.0643
138 | RRIRCRPPRLPRPRPRPKLNPRP | -0.265
139 | RRIRCRPPRLPRPRPRPKLPPRP | -0.0559
140 | RRIRCRPPRLPRPRPRPKLWPRP | 0.121
141 | RRIRCRPPRLPRPRPRPKNHPRP | -0.461
142 | RRIRCRPPRLPRPRPRPKNKPRP | -0.244
143 | RRIRCRPPRLPRPRPRPKQLPRP | -0.0668
144 | RRIRCRPPRLPRPRPRPKQYPRP | -0.629
145 | RRIRCRPPRLPRPRPRPKRGPRP | 0.27
146 | RRIRCRPPRLPRPRPRPKSKPRP | -0.338
147 | RRIRCRPPRLPRPRPRPKTEPRP | -0.0486
148 | RRIRCRPPRLPRPRPRPKVPPRP | -0.0562
149 | RRIRCRPPRLPRPRPRPKWLPRP | -0.0375
150 | RRIRCRPPRLPRPRPRPLAYPRP | -0.616
